Source: US20080160035A1 (Regeneron, published 2008)
Changes are numbered by the printed parent chain.

T1: mouse IL-4R (mouse, UniProt P16382 26-233, limits assumed)
T1 sequence (looked up): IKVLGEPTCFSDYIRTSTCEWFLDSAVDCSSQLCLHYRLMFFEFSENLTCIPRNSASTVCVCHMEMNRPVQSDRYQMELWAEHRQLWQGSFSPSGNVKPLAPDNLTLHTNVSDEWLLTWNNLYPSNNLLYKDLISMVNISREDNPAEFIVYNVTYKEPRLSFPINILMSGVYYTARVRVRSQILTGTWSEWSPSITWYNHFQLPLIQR

T2: dimeric hIL-4R-hFc (human, UniProt P24394 26-232)
T2 construct: also called hIL-4R-Fc; not shown: human Fc (hFc)
T2 sequence: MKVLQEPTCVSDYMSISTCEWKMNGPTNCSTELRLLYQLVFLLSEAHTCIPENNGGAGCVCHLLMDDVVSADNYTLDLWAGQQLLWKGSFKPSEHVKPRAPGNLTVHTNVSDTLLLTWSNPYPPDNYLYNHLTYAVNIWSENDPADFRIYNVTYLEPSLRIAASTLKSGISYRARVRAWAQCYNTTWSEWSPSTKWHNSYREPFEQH

T3: monomeric hIL-4R (R&D Systems) (human, UniProt P24394 26-231)
T3 construct: Bought (R&D Systems); also called hIL-4R monomer
T3 sequence: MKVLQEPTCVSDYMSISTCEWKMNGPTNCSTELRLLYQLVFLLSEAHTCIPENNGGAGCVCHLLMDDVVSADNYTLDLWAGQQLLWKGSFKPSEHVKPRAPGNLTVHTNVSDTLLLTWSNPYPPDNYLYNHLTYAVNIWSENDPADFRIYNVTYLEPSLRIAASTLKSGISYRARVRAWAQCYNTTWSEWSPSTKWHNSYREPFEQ

T4: hIL-4R on cells (STAT6-transfected HEK293, TF1, TF1/A12) (human, UniProt P24394 26-825)
T4 sequence (looked up): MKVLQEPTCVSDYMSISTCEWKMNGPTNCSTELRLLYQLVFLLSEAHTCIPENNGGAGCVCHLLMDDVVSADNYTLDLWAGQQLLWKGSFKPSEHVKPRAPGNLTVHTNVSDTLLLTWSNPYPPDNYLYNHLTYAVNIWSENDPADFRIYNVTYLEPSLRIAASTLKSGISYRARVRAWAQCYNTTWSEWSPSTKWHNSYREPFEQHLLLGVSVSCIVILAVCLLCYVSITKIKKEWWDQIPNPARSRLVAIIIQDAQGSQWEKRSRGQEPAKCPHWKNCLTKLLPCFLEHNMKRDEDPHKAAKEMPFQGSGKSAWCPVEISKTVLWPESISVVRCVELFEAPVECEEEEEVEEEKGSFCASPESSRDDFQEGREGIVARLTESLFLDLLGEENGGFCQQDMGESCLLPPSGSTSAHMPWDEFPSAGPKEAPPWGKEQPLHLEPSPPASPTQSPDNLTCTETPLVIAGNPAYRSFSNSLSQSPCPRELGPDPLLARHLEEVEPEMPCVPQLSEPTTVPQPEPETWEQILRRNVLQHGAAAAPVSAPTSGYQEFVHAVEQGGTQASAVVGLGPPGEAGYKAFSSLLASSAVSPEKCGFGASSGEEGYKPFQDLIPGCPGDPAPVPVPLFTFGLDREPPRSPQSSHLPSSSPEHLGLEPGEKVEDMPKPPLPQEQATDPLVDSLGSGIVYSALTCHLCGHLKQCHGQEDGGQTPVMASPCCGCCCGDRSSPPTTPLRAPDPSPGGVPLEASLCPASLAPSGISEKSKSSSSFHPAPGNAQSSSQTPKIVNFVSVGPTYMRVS

B1: VAB 1H1-2 (antibody, V domains shown)
VH: QVQLVQSGAEVKKPGASVKVSCKASGYTFTSYGISWVRQAPGQGLEWMGWISVYNGNTNYAQKLQGRVTMTTDTSTSTAYMDLRSLRSDDAAVYYCARGSGYDFDYWGQGTLVTVSS
VL: AIQMTQSPSSLSASVGDRVTITCRASQGIRNALGWYQQKPGKAPKLLIYAASSLQSGVPSRFSGSGSGTDFTLTISSLQSEDFATYYCLQDYNYPYTFGQGTKLEIK
notes: Apparently tested with mouse constant region (anti-mouse IgG capture/detection)
B2: VAB 4D5-3 (antibody, V domains shown)
VH: B1 VH with A9P, S31N, N57K, L64F, A91T
VL: B1 VL with Y49F, A51S, S76R, S80P, T85A
notes: as for B1
B3: VAB 8G10-1 (antibody, V domains shown)
VH: B1 VH with A9P, S31N, T58I, A91T
VL: B1 VL with G28D, G66A, S80P, T85A
notes: as for B1
B4: VAB 11G8-1 (antibody, V domains shown)
VH: B1 VH with S31N, N57H, D82E, A91T, Y106S
VL: B1 VL with P8S, G28A, L46V, V58I, S80P, N93D
notes: as for B1
B5: VX 4E7-9 (antibody, V domains shown)
VH: B1 VH with S31N, N57K, S77T, D82E, L83M, A91T, F104L, T114S
VL: B1 VL with I75F, S80P, Y92F
notes: 387/389; Apparently tested with mouse constant region (anti-mouse IgG capture/detection)
B6: VAB 6C10-14 (antibody, V domains shown)
VH: B1 VH with S31N, I34L, S35T, Q43R, K63T, Q65K, D82E, R84K, A91T
VL: B1 VL with T20A, G28D, A32D, Y49H, A50T, S77N, S80P, Y92N, N93S, K107N
notes: as for B1
B7: VAB 5C5-11 (antibody, V domains shown)
VH: QVQLVQSGAEVQKPGASVKVSCKASGYTFTGQYIHWVRQAPGQGLEWMGWINPNSGGTNFAQKFQDRVTMTRDTSIGTVYMELRRLTSDDTAVFYCVREKRGFDIWGQGTMVTVSS
VL: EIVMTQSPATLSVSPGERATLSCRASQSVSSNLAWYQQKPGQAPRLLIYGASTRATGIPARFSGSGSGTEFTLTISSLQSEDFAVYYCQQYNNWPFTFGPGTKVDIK
notes: as for B1
B8: VAB 3B4-10 (antibody, V domains shown)
VH: B1 VH with Q3H, S31N, S35G, V53I, K63R, Y80F, R87K, A91T, D103N, Y106H
VL: B1 VL with A32D, K39I, S77N, S80P, T85V, Y87F, Y92N, N93T, K103N, I106S
notes: as for B1
B9: VAB 16G1-1 (antibody, V domains shown)
VH: EVKLAESGGGLVQPGGSLRLSCAASGFTFSSHWMNWVRQAPGKGLEWVANIKQDGSDKYYVDSVKGRFTISRDNAKNSLYLQLNSLIAEDTAVYYCARDRGVRPPRGAFDIWGQGTMVTVSS
VL: DIQMTQSPSSVSASVGDRVTITCRASQGISSWLAWYQQKPGKAPKLLIYAASSFQSGVPSRFSGSGSGTDFTLTISSLQPEDFATYFCQQANSFPLTFGGGTTVEIK
notes: 403/405; 407/409 without saying which was assayed; Apparently tested with mouse constant region (anti-mouse IgG capture/detection)

These binders were tested against T1, mouse IL-4R (assay: binding affinity test of Example 2 (method not restated)).

| Binder | binding result |
| --- | --- |
| B1 | no binding |
| B2 | no binding |
| B3 | no binding |
| B4 | no binding |
| B5 | no binding |
| B6 | no binding |
| B7 | no binding |
| B8 | no binding |
| B9 | no binding |

What follows are binders tested against T2, dimeric hIL-4R-hFc (assay: SPR (BIAcore 2000); antibody captured, dimeric hIL-4R-hFc injected).
Procedure: (§1) Binding affinity (KD) of selected antibodies with respect to hIL-4R was determined using a real-time biosensor surface plasmon resonance assay (BIAcore™ 2000). Briefly, antibody was captured on a goat anti-mouse (GAM) IgG polyclonal antibody surface created through direct chemical coupling of the GAM IgG to a BIAcore™ chip to form a captured antibody surface. […] Binding of antigen to antibody and dissociation of the bound complex, were monitored in real time. Equilibrium dissociation constants (KD) and dissociation rate constants were ascertained by performing kinetic analysis using BIA evaluation software. BIA evaluation software was also used to calculate the half-life of antigen/antibody complex dissociation (T_{1/2}). […] The binding affinity of anti-hIL-4R antibodies to either mouse or monkey (Macaca fascicularis) IL-4R was also tested.

| Binder | Kd [nM] | T1/2 dimeric [h] |
| --- | --- | --- |
| B1 | 0.139 | 8.2 |
| B2 | 0.032 | 20.4 |
| B3 | 5.51 | 4.1 |
| B4 | 0.108 | 8.7 |
| B5 | 0.111 | 19.1 |
| B6 | 0.286 | 6.2 |
| B7 | 0.027 | 7.7 |
| B8 | 0.053 | 20.4 |
| B9 | 0.038 | 7.3 |

What follows are binders tested against T2, dimeric hIL-4R-hFc (assay: ELISA; antibody titrated against 25 pM hIL-4R-Fc, free receptor caught on hIL-4 plate).
Procedure: Concentration of free hIL-4R-Fc (no antibody bound) was determined using a hIL-4R-specific sandwich ELISA. […] After a one-hour incubation at room temperature, the detection plate was washed and plate-bound hIL-4R-hFc was detected using HRP conjugated goat anti-hFc polyclonal antibodies and developed using colorimetric substrates such as BD OptEIA™ (BD Biosciences Pharmingen, San Diego, Calif.). After the reaction was stopped with 1 M phosphoric or sulfuric acid, absorbances at 450 nm were recorded and the data were analyzed using GraphPad™ Prism software.

| Binder | IC50 [nM] |
| --- | --- |
| B1 | 0.146 |
| B2 | 0.24 |
| B3 | 0.244 |
| B4 | 0.24 |
| B5 | 0.118 |
| B6 | 0.441 |
| B7 | 0.024 |
| B8 | 0.322 |
| B9 | 0.018 |

The binders below were run against T3, monomeric hIL-4R (R&D Systems) (assay: SPR (BIAcore 2000); antibody captured, monomeric hIL-4R injected).
Procedure: as §1

| Binder | Kd [nM] | T1/2 monomeric [h] |
| --- | --- | --- |
| B1 | 34.9 | 0.133 |
| B2 | 2.02 | 0.583 |
| B3 | 7.71 | 0.467 |
| B4 | 1.63 | 0.417 |
| B5 | 1.43 | 0.8 |
| B6 | 1.77 | 1.22 |
| B7 | 0.13 | 0.783 |
| B8 | 0.59 | 1.7 |
| B9 | 0.93 | 0.25 |

Each binder was assayed against T2, dimeric hIL-4R-hFc (assay: SPR; reduction of hIL-4 (50 nM) binding to captured hIL-4R-hFc after antibody; competitor hIL-4).
Text: Purified hIL-4R-hFc molecules were captured by goat anti-human IgG polyclonal antibody immobilized on CM-5 to a density of 260 RU, to prepare a receptor-coated surface.

| Binder | % Inhibition (BIAcore) [%] |
| --- | --- |
| B1 | 78 |
| B2 | 82 |
| B3 | 74 |
| B4 | 77 |
| B5 | 79 |
| B6 | 79 |
| B7 | 96 |
| B8 | 72 |
| B9 | 92 |

The binders below were run against T4, hIL-4R on cells (STAT6-transfected …) (assay: cell-based or functional assay).

| Binder | STAT6 Bioassay IC50 (HEK293 STAT6 luciferase, 40 pM hIL-13) [nM] | TF1 Bioassay IC50 (proliferation, 150 pM hIL-13) [nM] |
| --- | --- | --- |
| B1 | > 10 |  |
| B2 | 3.3 |  |
| B3 | > 10 |  |
| B4 | 8.8 |  |
| B5 | 6.3 |  |
| B6 | > 10 |  |
| B7 | 0.06 | 0.82 |
| B8 | 8.3 |  |
| B9 | 0.09 | 0.44 |

Biological target: T4, hIL-4R on cells (STAT6-transfected …)
Test: cell-based or functional assay
Remark: another data set of the same source

| Binder | STAT6 Bioassay IC50 (HEK293 STAT6 luciferase, 10 pM hIL-4) [nM] | TF1/A12 Bioassay IC50 (proliferation, 20 pM hIL-4) [nM] | TF1 Bioassay IC50 (proliferation, 50 pM hIL-4) [nM] |
| --- | --- | --- | --- |
| B1 | > 10 | > 50 |  |
| B2 | 3.8 | 21 |  |
| B3 | > 10 | > 50 |  |
| B4 | > 10 | > 50 |  |
| B5 | 7.9 | 10 |  |
| B6 | > 10 | 23 |  |
| B7 | 0.14 | 0.37 | 0.21 |
| B8 | > 10 | > 50 |  |
| B9 | 0.14 | 0.7 | 0.12 |
